Experiments:
human MASP3-His (human) = human MASP3-His (human) (UniProt P48740); assay: cell-based or functional assay
[1] = target: MASP3 in Factor D depleted human plasma (human) (UniProt P48740); assay: cell-based or functional assay
Sequence of MASP3 in Factor D depleted human plasma (human) (P48740 other isoform, or with tags, fused parts or gaps): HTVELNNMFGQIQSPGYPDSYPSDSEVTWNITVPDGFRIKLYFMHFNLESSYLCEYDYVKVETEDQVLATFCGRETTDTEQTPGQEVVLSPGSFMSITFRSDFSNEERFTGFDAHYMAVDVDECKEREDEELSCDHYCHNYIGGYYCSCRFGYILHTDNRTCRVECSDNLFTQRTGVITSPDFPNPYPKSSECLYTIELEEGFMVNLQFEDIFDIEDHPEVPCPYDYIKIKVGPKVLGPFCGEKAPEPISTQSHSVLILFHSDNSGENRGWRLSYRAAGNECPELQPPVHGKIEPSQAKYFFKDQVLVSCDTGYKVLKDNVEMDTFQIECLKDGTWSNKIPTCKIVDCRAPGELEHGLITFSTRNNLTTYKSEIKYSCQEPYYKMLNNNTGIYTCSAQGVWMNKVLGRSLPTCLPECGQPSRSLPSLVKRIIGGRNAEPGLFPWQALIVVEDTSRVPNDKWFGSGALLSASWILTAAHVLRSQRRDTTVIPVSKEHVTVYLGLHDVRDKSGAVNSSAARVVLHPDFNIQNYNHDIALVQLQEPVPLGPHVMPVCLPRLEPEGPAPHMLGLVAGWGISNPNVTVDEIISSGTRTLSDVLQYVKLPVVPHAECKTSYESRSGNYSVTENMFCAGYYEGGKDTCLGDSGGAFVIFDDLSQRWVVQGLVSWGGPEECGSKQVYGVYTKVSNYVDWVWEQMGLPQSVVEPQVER

Sequence of human MASP3-His (human) (P48740 other isoform, or with tags, fused parts or gaps): as above

With OMS906 (antibody) the IC50 of inhibition of MASP3 enzymatic activity (cleavage of fluorescent tripeptide Boc-Val-Pro-Arg-AMC) (human MASP3-His (human)) was 200 nM, the Inhibit Hemolysis IC50 (alternative pathway, rabbit or guinea pig red blood cells) [1] was 13 nM and the Inhibit hemolysis IC50 (alternative pathway) [1] was 17.1 nM.

From patent US20260265412A1
